The term Kd denotes the concentration at which binding is half-saturated.

In one assay the target is T1, cynomolgus serum albumin (cynomolgus monkey, UniProt A2V9Z4 25-608).
T1 construct: also called cyno serum albumin
As to the kind of experiment: SPR (BIAcore 3000), 200 nM and 1 uM fusion injected on CM5 chip with ~900 RU cynomolgus serum albumin.

The target in another assay is T2, human serum albumin (human, UniProt P02768 25-609).
T2 construct: Bought protein (Sigma, 99% pure); also called HSA
T2 sequence (P02768 25-609 limits assumed): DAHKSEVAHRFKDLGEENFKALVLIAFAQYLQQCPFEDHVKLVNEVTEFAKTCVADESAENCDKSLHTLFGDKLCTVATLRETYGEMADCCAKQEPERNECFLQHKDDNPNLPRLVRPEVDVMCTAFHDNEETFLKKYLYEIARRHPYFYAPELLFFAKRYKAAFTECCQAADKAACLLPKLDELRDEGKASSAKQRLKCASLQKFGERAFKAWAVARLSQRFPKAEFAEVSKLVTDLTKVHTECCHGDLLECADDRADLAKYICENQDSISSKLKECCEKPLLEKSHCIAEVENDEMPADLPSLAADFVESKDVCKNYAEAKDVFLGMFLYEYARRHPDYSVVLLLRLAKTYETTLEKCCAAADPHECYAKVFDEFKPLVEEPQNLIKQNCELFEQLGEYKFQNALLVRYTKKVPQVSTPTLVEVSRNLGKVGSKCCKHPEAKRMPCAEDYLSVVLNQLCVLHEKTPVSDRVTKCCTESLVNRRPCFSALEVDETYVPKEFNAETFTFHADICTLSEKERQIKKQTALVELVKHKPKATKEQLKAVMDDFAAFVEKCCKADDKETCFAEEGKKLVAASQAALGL
As to the kind of experiment: SPR (BIAcore 3000), HSA on CM5 chip, 2D3-peptide fusion injected. On the technique in general: SPR reads the build-up and loss of mass on a sensor chip optically.

T1 sequence (A2V9Z4 25-608 limits assumed): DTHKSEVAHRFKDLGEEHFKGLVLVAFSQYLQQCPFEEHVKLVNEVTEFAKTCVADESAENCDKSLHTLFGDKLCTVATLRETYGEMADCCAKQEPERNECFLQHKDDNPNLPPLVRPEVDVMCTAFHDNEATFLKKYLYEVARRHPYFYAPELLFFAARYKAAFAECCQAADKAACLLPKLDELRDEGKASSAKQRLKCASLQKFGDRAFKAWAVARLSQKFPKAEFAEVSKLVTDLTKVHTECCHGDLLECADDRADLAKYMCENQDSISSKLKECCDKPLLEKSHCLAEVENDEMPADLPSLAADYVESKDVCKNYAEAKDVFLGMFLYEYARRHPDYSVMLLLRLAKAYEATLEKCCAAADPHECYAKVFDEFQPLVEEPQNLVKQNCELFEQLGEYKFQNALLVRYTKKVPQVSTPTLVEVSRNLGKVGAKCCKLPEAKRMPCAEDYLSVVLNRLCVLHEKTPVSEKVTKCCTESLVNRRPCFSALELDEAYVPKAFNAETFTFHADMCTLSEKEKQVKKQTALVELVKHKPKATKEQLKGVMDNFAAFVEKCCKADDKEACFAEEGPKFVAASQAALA

B1: 5F7-9GS-EXP89D03-9GS-EXP89D03 (other)
chain: EVQLVESGGGLVQAGGSLRLSCAASGITFSINTMGWYRQAPGKQRELVALISSIGDTYYADSVKGRFTISRDNAKNTVYLQMNSLKPEDTAVYYCKRFRTAAQGTDYWGQGTQVTVSSGGGGSGGGSWWEQDRDWDFDVFGGGTPGGGGSGGGSWWEQDRDWDFDVFGGGTP
notes: Fusion of Nanobody 5F7 with a tandem repeat of peptide 89D03; also called EXP486
Consider B1, for which the binding result in the assay with cynomolgus serum albumin is “binds”.

B2: EXPGMP 80B10 (as a fusion with the Nanobody 2D3) (other)
chain: EVQLVESGGSLVQPGGSLRLSCAASGFTFDDYAMSWVRQVPGKGLEWVSSINWSGTHTDYADSVKGRFTISRNNANNTLYLQMNSLKSEDTAVYYCAKNWRDAGTTWFEKSGSAGQGTQVTVSSGGGGSGGGSYWWERRDWDFDVFGGGTPAAAEQKLISEEDLNGAAHHHHHH
notes: Nanobody-peptide fusion, expressed in E. coli, purified by IMAC/SEC; also called 2D3-9GS-EXP80B10
In the assay with human serum albumin, B2 showed a Kd of 16 nM.

(Values after WO2011095545A1 (dated 2011).)
